# Assay results from the Immune Epitope Database (IEDB).
# pKd: −log10 of the molar value.
# Assays:
# HLA-A*32:01 = assay: IEDB peptide-MHC binding, purified MHC/competitive/radioactivity; filed as Kd, often an IC50 or EC50 that approximates it; ≥ and ≤ were set here for values at or beyond the usual limits of such assays
# HLA-B*08:01 = assay: as above
# HLA-A*30:02 = assay: as above
# HLA-A*01:01 = assay: as above
# HLA-B*44:02 = assay: as above
# HLA-A*23:01 = assay: as above
# HLA-A*29:02 = assay: as above
# HLA-A*24:02 = assay: as above
# HLA-A*26:01 [1] = assay: as above
# HLA-B*27:05 = assay: IEDB peptide-MHC binding, purified MHC/direct/fluorescence; filed as Kd, often an IC50 or EC50 that approximates it; ≥ and ≤ were set here for values at or beyond the usual limits of such assays; conditions: source organism: Mammarenavirus juninense
# HLA-A*26:01 [2] = assay: IEDB peptide-MHC binding, purified MHC/competitive/fluorescence; filed as Kd, often an IC50 or EC50 that approximates it; ≥ and ≤ were set here for values at or beyond the usual limits of such assays; conditions: source organism: Azotobacter vinelandii DJ
# HLA-B*44:03 = assay: IEDB peptide-MHC binding, purified MHC/competitive/radioactivity; filed as Kd, often an IC50 or EC50 that approximates it; ≥ and ≤ were set here for values at or beyond the usual limits of such assays
# HLA-A*11:01 [3] = assay: IEDB peptide-MHC binding, purified MHC/direct/fluorescence; filed as Kd, often an IC50 or EC50 that approximates it; ≥ and ≤ were set here for values at or beyond the usual limits of such assays; conditions: source organism: Homo sapiens
# HLA-A*02:01 = assay: as above; conditions: source organism: Homo sapiens
# HLA-A*03:01 = assay: as above; conditions: source organism: Homo sapiens
# HLA-A*31:01 = assay: as above; conditions: source organism: Homo sapiens
# HLA-A*11:01 [4] = assay: IEDB peptide-MHC binding, purified MHC/competitive/radioactivity; filed as Kd, often an IC50 or EC50 that approximates it; ≥ and ≤ were set here for values at or beyond the usual limits of such assays; conditions: source organism: Dengue virus 4 Philippines/H241/1956
# HLA-A*30:01 = assay: as above; conditions: source organism: Dengue virus 2 Jamaica/1409/1983
# [5] = source organism: Dengue virus 2 Jamaica/1409/1983
# [6] = source organism: Dengue virus 4 Philippines/H241/1956
# [7] = source organism: Vaccinia virus WR
# [8] = source organism: Dengue virus 1 Brazil/97-11/1997
# [9] = source organism: Mammarenavirus brazilense
# [10] = source organism: SARS coronavirus Tor2
# [11] = source organism: Dengue virus 3 Martinique/1243/1999
# [12] = source organism: Mammarenavirus guanaritoense
# [13] = source organism: Lymphocytic choriomeningitis virus (strain Armstrong)
# [14] = source organism: Mammarenavirus lassaense
sequence,measurement,setting,value
RGEDGCWYGM,pKd,HLA-A*32:01; [5],4.96
NRRRRTAGM,pKd,HLA-B*08:01; source organism: Dengue virus 2 Peru/IQT2913/1996,7.00
PSVEVKLPDY,pKd,HLA-A*30:02; [6],6.79
same,pKd,HLA-A*01:01; [6],5.12
SYLRKFSAL,pKd,HLA-B*08:01; [7],8.22
AGEKALKLSW,pKd,HLA-B*44:02; [8],6.24
VDICFWSTL,pKd,HLA-A*30:02; [9],5.01
same,pKd,HLA-A*23:01; [9],5.12
same,pKd,HLA-A*29:02; [9],≤ 4.10
same,pKd,HLA-A*01:01; [9],4.92
same,pKd,HLA-A*24:02; [9],5.25
same,pKd,HLA-A*26:01 [1]; [9],≤ 4.11
RRDLKLVDV,pKd,HLA-B*27:05,≤ 4.70
DGLSSVGGY,pKd,HLA-A*26:01 [2],≤ 4.70
TNEVHTWTEQ,pKd,HLA-A*32:01; [8],5.27
TLDESFLGRY,pKd,HLA-A*30:02; [10],8.08
same,pKd,HLA-A*23:01; [10],≤ 4.15
same,pKd,HLA-A*29:02; [10],6.81
same,pKd,HLA-A*01:01; [10],8.25
same,pKd,HLA-A*24:02; [10],≤ 4.15
same,pKd,HLA-A*26:01 [1]; [10],6.88
REDLWCGSLI,pKd,HLA-B*44:02; [6],6.59
same,pKd,HLA-B*44:03; [6],6.40
CYSQVNPLTL,pKd,HLA-A*23:01; [8],6.72
same,pKd,HLA-A*24:02; [8],6.84
YLGSWATGK,pKd,HLA-A*11:01 [3],5.84
same,pKd,HLA-A*02:01,4.80
same,pKd,HLA-A*03:01,6.59
same,pKd,HLA-A*31:01,5.71
YWVSCGTGNI,pKd,HLA-A*23:01; [8],6.78
SQHQHLAIM,pKd,HLA-B*08:01; [7],6.85
FYGGWHNML,pKd,HLA-A*30:02; [10],≤ 4.00
same,pKd,HLA-A*23:01; [10],5.29
same,pKd,HLA-A*29:02; [10],4.81
same,pKd,HLA-A*01:01; [10],≤ 4.11
same,pKd,HLA-A*24:02; [10],≤ 4.55
same,pKd,HLA-A*26:01 [1]; [10],≤ 4.11
EKWKKKLNQL,pKd,HLA-B*08:01; [11],6.22
HAQRVESWIL,pKd,HLA-B*08:01; [6],6.45
EFFDCFKYIL,pKd,HLA-A*23:01; [12],5.77
same,pKd,HLA-A*29:02; [12],6.19
same,pKd,HLA-A*24:02; [12],5.06
GSVGFNIDY,pKd,HLA-A*30:02; [10],5.78
same,pKd,HLA-A*23:01; [10],≤ 4.11
same,pKd,HLA-A*29:02; [10],6.75
same,pKd,HLA-A*01:01; [10],5.25
same,pKd,HLA-A*24:02; [10],≤ 4.11
same,pKd,HLA-A*26:01 [1]; [10],4.99
NEELITEQM,pKd,HLA-B*44:02; [6],6.55
SALTLHWFRK,pKd,HLA-A*11:01 [4],7.74
same,pKd,HLA-A*32:01; [6],5.71
RLANNKVTI,pKd,HLA-A*32:01; [7],8.81
TWAFCEVLTL,pKd,HLA-A*23:01; [6],6.63
same,pKd,HLA-A*24:02; [6],5.65
VFFGYFASHF,pKd,HLA-A*30:02; [10],5.55
same,pKd,HLA-A*23:01; [10],9.23
same,pKd,HLA-A*29:02; [10],9.58
same,pKd,HLA-A*01:01; [10],4.89
same,pKd,HLA-A*24:02; [10],8.33
same,pKd,HLA-A*26:01 [1]; [10],5.38
VTDKEKPVNI,pKd,HLA-A*01:01; [8],4.81
AFKVPGVKTV,pKd,HLA-A*30:02; [13],5.18
same,pKd,HLA-A*23:01; [13],≤ 4.15
same,pKd,HLA-A*29:02; [13],5.16
same,pKd,HLA-A*01:01; [13],≤ 4.15
same,pKd,HLA-A*24:02; [13],≤ 4.15
same,pKd,HLA-A*26:01 [1]; [13],≤ 4.16
LFVTIYSHL,pKd,HLA-A*30:02; [10],≤ 4.32
same,pKd,HLA-A*23:01; [10],8.04
same,pKd,HLA-A*29:02; [10],5.85
same,pKd,HLA-A*01:01; [10],5.42
same,pKd,HLA-A*24:02; [10],6.88
same,pKd,HLA-A*26:01 [1]; [10],5.96
FNATKFPSVY,pKd,HLA-A*30:02; [10],5.92
same,pKd,HLA-A*23:01; [10],≤ 4.15
same,pKd,HLA-A*29:02; [10],5.52
same,pKd,HLA-A*01:01; [10],≤ 4.25
same,pKd,HLA-A*24:02; [10],≤ 4.15
same,pKd,HLA-A*26:01 [1]; [10],≤ 4.61
HYLCLNCLS,pKd,HLA-A*30:02; [14],4.85
same,pKd,HLA-A*01:01; [14],5.43
same,pKd,HLA-A*26:01 [1]; [14],≤ 4.11
MADQAMTQMY,pKd,HLA-A*30:02; [10],6.90
same,pKd,HLA-A*23:01; [10],≤ 4.15
same,pKd,HLA-A*29:02; [10],8.01
same,pKd,HLA-A*01:01; [10],7.74
same,pKd,HLA-A*24:02; [10],≤ 4.15
same,pKd,HLA-A*26:01 [1]; [10],5.55
NVHTWTEQY,pKd,HLA-A*01:01; [5],5.22
TSKKRSWPLN,pKd,HLA-A*30:01,5.34
same,pKd,HLA-A*32:01; [5],≤ 4.41
NWASVKKDLI,pKd,HLA-A*23:01; [11],6.54
VEGVSGGSW,pKd,HLA-B*44:02; [5],6.66
same,pKd,HLA-B*44:03; [5],6.95
